Common to all, as to conditions: 50 mM citric acid sodium citrate buffer, pH 4.8, 50 °C
One data set concerns T1, CT-CBH.
T1 construct: gene cbh1; single-chain fusion: C. thermophilum CBHI (GenBank AM711862.1) with its CBM replaced by that of T. reesei CBHI; secreted from T. reesei Tu-6 delta-ku70
The experiment in a line: fluorescence of released methylumbelliferone (ex […], em […] nm), Michaelis-Menten nonlinear fit. The format is biochemical, Thermochaetoides thermophila; Trichoderma reesei.

For a further data set, the system named is T2, TC-CBH.
T2 construct: gene cbh1; single-chain fusion: T. reesei CBHI with its CBM replaced by that of C. thermophilum CBHI (GenBank AM711862.1); secreted from T. reesei Tu-6 delta-ku70
Described as above. The format is biochemical, Trichoderma reesei; Thermochaetoides thermophila.

Substrate in data set [1]: Cc1cc(=O)oc2cc(O[C@@H]3O[C@H](CO)[C@@H](O[C@@H]4O[C@H](CO)[C@@H](O)[C@H](O)[C@H]4O)[C@H](O)[C@H]3O)ccc12
The experiment in a line: purified protein. The format is biochemical, Thermochaetoides thermophila.

Substrate in data set [2]: Cc1cc(=O)oc2cc(O[C@@H]3O[C@H](CO)[C@@H](O[C@@H]4O[C@H](CO)[C@@H](O)[C@H](O)[C@H]4O)[C@H](O)[C@H]3O)ccc12
The experiment in a line: purified protein. The format is biochemical, Trichoderma reesei.

Usually Km stands for the substrate concentration at which the rate is half of its maximum. In the case of `Cc1cc(=O)oc2cc(O[C@@H]3O[C@H](CO)[C@@H](O[C@@H]4O[C@H](CO)[C@@H](O)[C@H](O)[C@H]4O)[C@H](O)[C@H]3O)ccc12` [MUC], the Km was found to be 700 µM in the data set on CT-CBH and 1200 µM with TC-CBH.

B1: C-CBH (Chaetomium thermophilum CBHI) (Thermochaetoides thermophila) (protein)
chain: QQACSLTAENHPSLTWKRCTSGGSCSTVNGAVTIDANWRWTHTVSGSTNCYTGNQWDTSLCTDGKSCAQTCCVDGADYSSTYGITTSGDSLNLKFVTKHQYGTNVGSRVYLMENDTKYQMFELLGNEFTFDVDVSNLGCGLNGALYFVSMDADGGMSKYSGNKAGAKYGTGYCDAQCPRDLKFINGEANVGNWTPSTNDANAGFGRYGSCCSEMDVWEANNMATAFTPHPCTTVGQSRCEADTCGGTYSSDRYAGVCDPDGCDFNAYRQGDKTFYGKGMTVDTNKKMTVVTQFHKNSAGVLSEIKRFYVQDGKIIANAESKIPGNPGNSITQEYCDAQKVAFSNTDDFNRKGGMAQMSKALAGPMVLVMSVWDDHYANMLWLDSTYPIDQAGAPGAERGACPTTSGVPAEIEAQVPNSNVIFSNIRFGPIGSTVPGLDGSNPGNPTTTVVPPASTSTSRPTSSTSSPVSTPTGQPGGCTTQKWGQCGGIGYTGCTNCVAGTTCTQLNPWYSQCL
notes: full length: catalytic domain, linker, CBM; secreted from T. reesei Tu-6 delta-ku70 (common signal peptide for all four constructs, cDNA1 promoter); no tag stated; concentrated by 30 kDa ultrafiltration
Broadly, the kcat is the number of substrate molecules converted per active site and unit of time at saturation. The kcat/Km is the second-order rate constant that governs catalysis at low substrate concentration. For B1, in “purified protein [1]”, the Km worked out at 1100 µM, the catalytic constant (kcat) was found to be 1.56 s⁻¹ and the kcat/Km was determined as 1480 M⁻¹ s⁻¹.

B2: T-CBH (Trichoderma reesei CBHI) (Trichoderma reesei QM6a) (protein)
chain: QSACTLQSETHPPLTWQKCSSGGTCTQQTGSVVIDANWRWTHATNSSTNCYDGNTWSSTLCPDNETCAKNCCLDGAAYASTYGVTTSGNSLSIGFVTQSAQKNVGARLYLMASDTTYQEFTLLGNEFSFDVDVSQLPCGLNGALYFVSMDADGGVSKYPTNTAGAKYGTGYCDSQCPRDLKFINGQANVEGWEPSSNNANTGIGGHGSCCSEMDIWEANSISEALTPHPCTTVGQEICEGDGCGGTYSDNRYGGTCDPDGCDWNPYRLGNTSFYGPGSSFTLDTTKKLTVVTQFETSGAINRYYVQNGVTFQQPNAELGSYSGNELNDDYCTAEEAEFGGSSFSDKGGLTQFKKATSGGMVLVMSLWDDYYANMLWLDSTYPTNETSSTPGAVRGSCSTSSGVPAQVESQSPNAKVTFSNIKFGPIGSTGNPSGGNPPGGNPPGTTTTRRPATTTGSSPGPTQSHYGQCGGIGYSGPTVCASGTTCQVLNPYYSQCL
notes: full length: catalytic domain, linker, CBM; secreted from T. reesei Tu-6 delta-ku70 (cDNA1 promoter); no tag stated; concentrated by 30 kDa ultrafiltration
Regarding B2, in “purified protein [2]”, the Km was 1300 µM, the turnover number (kcat) came to 1.29 s⁻¹ and the kcat/Km was determined as 1030 M⁻¹ s⁻¹.

For the origin of these results see article PMC12072009, “Catalytic Efficiency Improvement in Cellobiohydrolase I by Cross-Species Domain Exchange Engineering” (International Journal of Molecular Sciences, 2025).
